Where a chain is given by its changes, count along the chain named. Values belong to the molecule of their own block, whether it stands above or below them.
Assays:
[1] = target: β2AR truncated after amino acid 365 (β2AR-365), native (human) (UniProt P07550); experiment: cell-based or functional assay
[2] = target: T1, β2AR truncated after amino acid 365 (β2AR-365), native (human, UniProt P07550 1-365); experiment: listed as β2AR-specific; phage selection and ELISA on reconstituted β2AR-365
T1 construct: Expressed in Sf9 insect cells; Used detergent-solubilized, in phospholipid vesicles, in Sf9 membranes or in HDL particles; In the bimane assays it carried monobromobimane on Cys265; also called WT β2AR
Protocol: In a first screen we compared the binding of the nanobodies on the native and heat denatured β₂AR antigen in an ELISA. […] Next, this plate was incubated at 80° C. for two hours.
A single llama received six weekly administrations of the reconstituted truncated β₂AR. Lymphocytes were isolated from the blood of the immunized llama and total RNA was prepared from these cells. […] Antigen-bound phages were recovered from antigen-coated wells either with thriethylamine pH11 and neutralized with Tris-HCl pH7 or by the addition of freshly grown TG1 E. coli cells. After two rounds of bio-panning, 96 individual colonies were randomly picked and the nanobodies produced as a soluble HIS-tagged protein in the periplasm of the TG1 cells.

[3] = target: T1, β2AR truncated after amino acid 365 …; experiment: cell-based or functional assay
[4] = target: β2AR-T4L fusion protein (third intracellular loop replaced by T4 lysozyme, truncated at position 365) (human) (UniProt P07550); experiment: cell-based or functional assay

- binding result [2]: binds
B4: Nanobody CA3484 (VHH)
VHH: QVQLQESGGGLVQAGGSLRLSCAASGSIFSLNDMGWYRQAPGKLRELVAAITSGGSTKYADPVKGRFTISRDNAKNTVYLQMNSLKAEDTAVYYCNAKVAGTFSIYDYWGQGTQVTVSS
notes: also called NB84 (short notation shared with CA2784)

- binding result [2]: binds
B7: Nanobody CA2784 (VHH)
VHH: QVQLQESGGGLVQAGGSLRLSCAASGSIFSINAMGWYRQAPGKQRELVAAITSGGSTTYADSVKGRFTVSRDNAKNTVYLQMIRLKPEDTAVYYCHVRDIYSDFLGQYEYDYWGQGTQVTVSS
notes: also called NB84 (short notation shared with CA3484)

- Ki of (-)-isoproterenol for β2AR, [3H]-DHA competition on Sf9 membranes with 1 µM nanobody (295 without nanobody) [3]: 19.4 nM
B9: Nanobody 67, reference number CA2767 (VHH)
VHH: QVQLQESGGGLVQAGGSLRLSCAASGTISSFIAMGWYRQSPGKQRELVAGITSGGETNYEDSVKGRFTISRDNAKNTLYLQMNTLKPEDTAVYYCNAQVFADIFNLINYWGQGTQVTVSS

- binding result [2]: binds
B10: Nanobody CA3424 (VHH)
VHH: QVQLQESGGGLVQAGGSLRLSCAASGSVFSLPTAGWYRQAPGKQRELVALITGSGSTHYADSVKGRFAISREYSKKTMDLQMNSLHREDTAVYFCYYRSTFTEYWGQGTQVTVSS
notes: also called NB24

- Ki of (-)-isoproterenol for β2AR, [3H]-DHA competition on Sf9 membranes with 1 µM nanobody (295 without nanobody) [3]: 13.8 nM
B13: Nanobody 65, reference number CA2765 (VHH)
VHH: QVQLQESGGGLVQAGGSLRLSCAASGSIFSINTMGWYRQAPGKQRELVAAIHSGGSTNYADSVRGRFTISRDNAKNTVYLQMNSLKPEDTAVYYCNVKDYGAVLYEYDYWGQGTQVTVSS

- binding result [2]: binds
B14: Nanobody CA3413 (VHH)
VHH: B13 VHH with Q44R, D61N, R64K, K75A
notes: also called NB13

- binding result [2]: binds
B15: Nanobody CA2764 (VHH)
VHH: B13 VHH with R64K
notes: also called NB64

- Ki of (-)-isoproterenol for β2AR, [3H]-DHA competition on Sf9 membranes with 1 µM nanobody (295 without nanobody) [3]: 10.6 nM
B16: Nanobody 71, reference number CA2771 (VHH)
VHH: QVQLQESGGGLVQPGGSLRLSCAASGFAFSSYELRWYRQAPGKQHELVAGITTGGNTYYADSVKGRFTISRDNAKNTVYLQMSNLRPEDTAVYACNANWDLLSDYWGQGTQVTVSS

Continued, molecule first:

Molecule: Gs heterotrimer
- Ki of (-)-isoproterenol, high affinity state, β2AR/HDL reconstituted with Gs [1]: 1.07 nM
- Ki of (-)-isoproterenol, low affinity state, β2AR/HDL reconstituted with Gs [1]: 95.3 nM
- Ki of (-)-isoproterenol, low affinity state, β2AR/HDL reconstituted with Gs in the presence of 10 µM GTPγS [1]: 95.2 nM
- fold increase of the affinity of isoproterenol for β2AR/HDL [1]: 100 fold

B1: Nanobody CA3477 (VHH)
VHH: B4 VHH with L44Q, K58N, P62S, A87P
notes: also called NB77
- binding result [2]: binds

B2: Nanobody CA3433 (VHH)
VHH: B4 VHH with I51V, K58N, P62S, A87P
notes: also called NB33
- binding result [2]: binds

B3: Nanobody CA3475 (VHH)
VHH: B4 VHH with S17P, L44Q, K58N, P62S, A87P, K98V, I105T
notes: also called NB75
- binding result [2]: binds

B5: Nanobody CA3472 (VHH)
VHH: B4 VHH with A14P, L44Q, T52S, S56R, T57L, K58N, P62S, A87P, K98V, I105T
notes: also called NB72 (short notation shared with CA2772)
- binding result [2]: binds

B6: Nanobody CA3420 (VHH)
VHH: B4 VHH with L44Q, E46D, P62S, I69V, A87P
notes: also called NB20
- binding result [2]: binds

B8: Nanobody CA3422 (VHH)
VHH: QVQLQESGGGLVQAGGSLRLSCAASGSIFSINAMGWYRQAPGKQRELVAASTSGDITNYADSVKGRFTISRDNAKNTVYLQMNSLEPEDTGVYYCNARGIYSDYAFADFNSWGQGTQVTVSS
notes: also called NB22
- binding result [2]: binds

B11: Nanobody-80 (Nb80), reference number CA2780 (VHH, not shown: small tags and cut ends)
VHH: B13 VHH with D61N, R64K, K75A
- Ki of (-)-isoproterenol, high affinity state, β2AR-T4L/HDL with 1 µM Nb80 (33.5 without) [4]: 0.56 nM
- fold increase of the affinity of isoproterenol for β2AR-T4L/HDL [4]: 60 fold

B12: Nanobody CA3431 (VHH)
VHH: B13 VHH with A14P, D61N, R64K, K75A
notes: also called NB31
- binding result [2]: binds

— US20190049463A1 (VIB VZW, published 2019)
